Changes are numbered by the printed parent chain. Names and notes keep the numbering of the source.
B1: 2-C10-(G4S)3-2-B1 bivalent PD1 antibody (with human IgG1 Fc) (Fc fusion)
chain: QVQLVESGGGLVQPGGSLRLSCAASGFSLDAYTIGWFRQAPGQEREGISCISRSGRITNYARSAKDRFTISRDNAKNTVYLEMKNLRPEDTGAYYCAAVEMDPFLCSGYTQSYDQWGQGTQVTVSSGGGGSGGGGSGGGGSQVQLVESGGGLVQPGGSLTVSCAASGFSLDAYTIGWFRQAPGKEREGIICISRGGRITNYAHSVKDRFTISRDGAKNTVYLHMNSLKPEDTGAYYCAAVQRDPFICSGYTQSYDHWGQGTQVTVSS
notes: Two VHH joined by (G4S)3, subcloned in tandem with human IgG1 Fc; purified on Protein A; not shown: human IgG1 Fc, in tandem C-terminal (vector pcDNA3.4-hIgG1-Fc2)
B2: 2-C10-(G4S)3-2-F3 bivalent PD1 antibody (with human IgG1 Fc) (Fc fusion)
chain: B1 chain with Q144K, V146E, A164V, T219M, H256L
notes: as for B1
B3: 2-F3-(G4S)3-2-B1 bivalent PD1 antibody (with human IgG1 Fc) (Fc fusion)
chain: QVKLEESGGGLVQPGGSLTVSCVASGFSLDAYTIGWFRQAPGKEREGIICISRGGRITNYAHSVKDRFTISRDGAKNMVYLHMNSLKPEDTGAYYCAAVQRDPFICSGYTQSYDLWGQGTQVTVSSGGGGSGGGGSGGGGSQVQLVESGGGLVQPGGSLTVSCAASGFSLDAYTIGWFRQAPGKEREGIICISRGGRITNYAHSVKDRFTISRDGAKNTVYLHMNSLKPEDTGAYYCAAVQRDPFICSGYTQSYDHWGQGTQVTVSS
notes: as for B1
B4: 2-C10 VHH displayed on phage (clone from cross-panning) (VHH)
VHH: QVQLVESGGGLVQPGGSLRLSCAASGFSLDAYTIGWFRQAPGQEREGISCISRSGRITNYARSAKDRFTISRDNAKNTVYLEMKNLRPEDTGAYYCAAVEMDPFLCSGYTQSYDQWGQGTQVTVSS
notes: Tested as a phage monoclone (pComF display vector, M13) in phage ELISA; the phage fusion partner is not described

Key:
[1] = molecular target: T1, PD1-Fc recombinant protein (human, UniProt Q15116 25-167); assay: SPR, PD1-Fc immobilized on CM5 chip, antibody as mobile phase
T1 construct: range 25-167; also called PD1-Fc antigen; PD1-Fc protein; not shown: human IgG1 Fc tag at the C-terminus

[2] = molecular target: T1, PD1-Fc recombinant protein; assay: phage ELISA, wells coated with PD1-Fc (Fc and blocked wells as controls)

T1 sequence (Q15116 25-167 limits assumed): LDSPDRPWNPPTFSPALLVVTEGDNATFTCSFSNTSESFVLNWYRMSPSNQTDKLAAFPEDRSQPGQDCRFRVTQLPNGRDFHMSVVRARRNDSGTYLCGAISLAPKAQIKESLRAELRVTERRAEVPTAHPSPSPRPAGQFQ

| Binder | Kd [1] [nM] | koff [1] [s⁻¹] | kon [1] [M⁻¹ s⁻¹] | binding result [2] |
| --- | --- | --- | --- | --- |
| B1 | 0.0211 | 3.29e-05 | 1.56e+06 | – |
| B2 | 0.28 | 8.92e-05 | 318000 | – |
| B3 | 0.282 | 0.000118 | 418000 | – |
| B4 | – | – | – | binds |

Source: US20260242474A1 (PERSONGEN BIOTHERAPEUTICS SUZHOU, published 2026)
